The supplement of paper PMC9170038

Test system: K4 kissing-loop RNA reporter
Test: apparent KD of K4 kissing-loop reporter; higher = weaker reporter binding
Conditions: Eterna round: R107
Procedure: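 RNA-MaP round R107: designed RNA switches with theophylline, tryptophan, arginine or FMN aptamers are transcribed on-chip within common flanks. They are titrated with a labelled K4 kissing-loop RNA reporter in RNA-MaP buffer (100 mM Tris pH 7.5, 80 mM KCl, 4 mM MgCl2), without ligand or with the indicated ligand. Median apparent KD per design.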

[1] = input ligand: theophylline 20 uM
[2] = input ligand: tryptophan 2.4 mM
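Note: bound reporter read as fluorescence of individual clusters on recovered sequencing chips by microscopy, with normalized cluster intensities fitted with a binding model.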

ACGGUUUCCACGGCCGCCACUUGCGCAUUAGAUCUUACCCUAGGAGUGAUGUUCCAUACAAGUACAAGGACCGGGUGGGACAUAA [theeternabot_sameState_KL_Trp_B_28]
apparent KD of K4 kissing-loop reporter (input ligand: FMN 200 uM): 257 nM
apparent KD of K4 kissing-loop reporter (input ligand: arginine 13.2 mM): 369 nM
apparent KD of K4 kissing-loop reporter (input ligand: none): 375 nM
apparent KD of K4 kissing-loop reporter [1]: 342 nM
apparent KD of K4 kissing-loop reporter [2]: 239 nM

UGUCAUUGGUCUGAUACCAGUCCCUUGGCAGCCUAAAGGAGUGAUGUUCCAAGGAUACCAGACCCUUGGCAGCAGACCGAUGACU [TheoBS 28 #DoubleAptamer #SwitchBubble]
apparent KD of K4 kissing-loop reporter (input ligand: FMN 200 uM): 351 nM
apparent KD of K4 kissing-loop reporter (input ligand: arginine 13.2 mM): 312 nM
apparent KD of K4 kissing-loop reporter (input ligand: none): 360 nM
apparent KD of K4 kissing-loop reporter [1]: 260 nM
apparent KD of K4 kissing-loop reporter [2]: 354 nM

UCUGGAGCAUAUGAUACCAGCAGUGAGAGACAGGAAGUAUAGUGAUGUUAUAUGAGAGAAUGCCCUUGGCAGCGUGUGUAGUGGG [SSTheophylB.N]
apparent KD of K4 kissing-loop reporter (input ligand: FMN 200 uM): 174 nM
apparent KD of K4 kissing-loop reporter (input ligand: arginine 13.2 mM): 137 nM
apparent KD of K4 kissing-loop reporter (input ligand: none): 128 nM
apparent KD of K4 kissing-loop reporter [1]: 170 nM
apparent KD of K4 kissing-loop reporter [2]: 104 nM

GAGCCAGAGGUUGCUGCGGGUUUCAGAGAUACCAGCCGUAUUGUAGGCCCUUGGCAGCUCGAGUGAUGUUCGAGCCGCCUCUGGC [Eredorxela]
apparent KD of K4 kissing-loop reporter (input ligand: FMN 200 uM): 111 nM
apparent KD of K4 kissing-loop reporter (input ligand: arginine 13.2 mM): 102 nM
apparent KD of K4 kissing-loop reporter (input ligand: none): 120 nM
apparent KD of K4 kissing-loop reporter [1]: 129 nM
apparent KD of K4 kissing-loop reporter [2]: 109 nM

AGUGCUAUGACGGCCGCCACUGAUUACCAGUGAUGUUGGUAGUCCAUUUACGACUUCCUGAUAACCAGGACCGGGUCAUAGGUCG [Tryp B Ex t2]
apparent KD of K4 kissing-loop reporter (input ligand: FMN 200 uM): 702 nM
apparent KD of K4 kissing-loop reporter (input ligand: arginine 13.2 mM): 613 nM
apparent KD of K4 kissing-loop reporter (input ligand: none): 807 nM
apparent KD of K4 kissing-loop reporter [1]: 450 nM
apparent KD of K4 kissing-loop reporter [2]: 201 nM

UUUAAAUAUAGUGAUGUUAUAUAACAAUGACGAGGACCGGUACGGCCGCCACUCGAGAGAGAUAAUGGUCUUACAAAUGUAAGUC [AstrosSSTryA#8]
apparent KD of K4 kissing-loop reporter (input ligand: FMN 200 uM): 546 nM
apparent KD of K4 kissing-loop reporter (input ligand: arginine 13.2 mM): 589 nM
apparent KD of K4 kissing-loop reporter (input ligand: none): 852 nM
apparent KD of K4 kissing-loop reporter [1]: 738 nM
apparent KD of K4 kissing-loop reporter [2]: 399 nM

AGCUCAGAGUGACUCGAUAAGAGUCACAAACGAGGACCGGUACGGCCGCCACUCGAAAUAAUGAGAGUGAUGUUCUCGCUGAGCA [#SwitchBubble 2 #StaticStem #K4Late]
apparent KD of K4 kissing-loop reporter (input ligand: FMN 200 uM): 221 nM
apparent KD of K4 kissing-loop reporter (input ligand: arginine 13.2 mM): 98.6 nM
apparent KD of K4 kissing-loop reporter (input ligand: none): 89 nM
apparent KD of K4 kissing-loop reporter [1]: 145 nM
apparent KD of K4 kissing-loop reporter [2]: 793 nM

CACUGGGCGAGUGAUGUUCGCUCACGUGAUACCAGUGCCAUCCAACACCCUUGGCAGCAUGCGGGCAGUGAUGUUGUCCAAAGAA [Exclusion Theophylline A GF9]
apparent KD of K4 kissing-loop reporter (input ligand: FMN 200 uM): 204 nM
apparent KD of K4 kissing-loop reporter (input ligand: arginine 13.2 mM): 187 nM
apparent KD of K4 kissing-loop reporter (input ligand: none): 207 nM
apparent KD of K4 kissing-loop reporter [1]: 208 nM
apparent KD of K4 kissing-loop reporter [2]: 184 nM

CCUUGGAUUAGCUGUACUUUUCUACGGGAUACCAGUGCGUAACACCACCCUUGGCAGCCCGAUUACCGGCAGUGAUGUUGCCUCU [theeternabot_sameState_KL_Theo_A_41]
apparent KD of K4 kissing-loop reporter (input ligand: FMN 200 uM): 185 nM
apparent KD of K4 kissing-loop reporter (input ligand: arginine 13.2 mM): 282 nM
apparent KD of K4 kissing-loop reporter (input ligand: none): 244 nM
apparent KD of K4 kissing-loop reporter [1]: 245 nM
apparent KD of K4 kissing-loop reporter [2]: 192 nM

GGUAGCAUGGCGGCCGCCACUACUGACAGCUGUCUGUUCUGGGUACCAGGGAGUGAUGUUCCCGGUAGGACCGGGCCAUGCUACC
apparent KD of K4 kissing-loop reporter (input ligand: FMN 200 uM): 135 nM
apparent KD of K4 kissing-loop reporter (input ligand: arginine 13.2 mM): 106 nM
apparent KD of K4 kissing-loop reporter (input ligand: none): 114 nM
apparent KD of K4 kissing-loop reporter [1]: 112 nM
apparent KD of K4 kissing-loop reporter [2]: 266 nM

AGUAGUUGGGCGGCCGCCACUGGAACAGCUUUGUCAAAGACAGAGCACUAGAGUGAUGUUCUAGCUAGGACCGGGUCCAACUACA [whbob_SS_Tryp_B_t17]
apparent KD of K4 kissing-loop reporter (input ligand: FMN 200 uM): 460 nM
apparent KD of K4 kissing-loop reporter (input ligand: arginine 13.2 mM): 206 nM
apparent KD of K4 kissing-loop reporter (input ligand: none): 533 nM
apparent KD of K4 kissing-loop reporter [1]: 503 nM
apparent KD of K4 kissing-loop reporter [2]: 991 nM

AGACUUCACCGAAGGAGCGACGUGGUCUAGUGAUGUUAGACACGAGAGAAAUCUCGUAUACGUCAGGUAGGUCGCGGUGAAGUCA [Omei KL Arginine B SS C v9]
apparent KD of K4 kissing-loop reporter (input ligand: FMN 200 uM): 147 nM
apparent KD of K4 kissing-loop reporter (input ligand: arginine 13.2 mM): 119 nM
apparent KD of K4 kissing-loop reporter (input ligand: none): 146 nM
apparent KD of K4 kissing-loop reporter [1]: 117 nM
apparent KD of K4 kissing-loop reporter [2]: 133 nM

UGUGAUGUGUAGUGUUAUGUUUUGCGGGAUACCAGAGUCUUUUUAUUCCCUUGGCAGCUUGAGUGAUGUUUGAUGCUGUUCUUGU [cxxdmullin]
apparent KD of K4 kissing-loop reporter (input ligand: FMN 200 uM): 453 nM
apparent KD of K4 kissing-loop reporter (input ligand: arginine 13.2 mM): 349 nM
apparent KD of K4 kissing-loop reporter (input ligand: none): 439 nM
apparent KD of K4 kissing-loop reporter [1]: 410 nM
apparent KD of K4 kissing-loop reporter [2]: 352 nM

AGACUUCACCGAAGGAGCGACGUAGCCUAGUGAUGUUAGGCAAGAGAGAAAUCUCUUAUACGUCAGGUAGGUCGCGGUGAAGUCA [Omei KL Arginine B SS C v2]
apparent KD of K4 kissing-loop reporter (input ligand: FMN 200 uM): 197 nM
apparent KD of K4 kissing-loop reporter (input ligand: arginine 13.2 mM): 118 nM
apparent KD of K4 kissing-loop reporter (input ligand: none): 162 nM
apparent KD of K4 kissing-loop reporter [1]: 160 nM
apparent KD of K4 kissing-loop reporter [2]: 150 nM

AAUAAUCUAGGUGAUACCAGCUCAACAUGAGUGAUGUUCAUGAACUAAUGUAGAGUUGAGAGCCCUUGGCAGCACCUAGAUAAUA [KL-SSTheoB6]
apparent KD of K4 kissing-loop reporter (input ligand: FMN 200 uM): 873 nM
apparent KD of K4 kissing-loop reporter (input ligand: arginine 13.2 mM): 792 nM
apparent KD of K4 kissing-loop reporter (input ligand: none): 966 nM
apparent KD of K4 kissing-loop reporter [1]: 458 nM
apparent KD of K4 kissing-loop reporter [2]: 962 nM

UGGUUUAACUGAAGGAGCGGCAAUUGAUAAGUAGAUAUAGUGAUGUUAUAUAAGAUAGAGAGCCAGGUAGGUCGCAGAGGUGUUU [ExArgB.Q]
apparent KD of K4 kissing-loop reporter (input ligand: FMN 200 uM): 208 nM
apparent KD of K4 kissing-loop reporter (input ligand: arginine 13.2 mM): 204 nM
apparent KD of K4 kissing-loop reporter (input ligand: none): 232 nM
apparent KD of K4 kissing-loop reporter [1]: 253 nM
apparent KD of K4 kissing-loop reporter [2]: 189 nM

AAUUAAUACAGAAGGAGCGUGAAAUUAUCUACUUUUAACUUAGCGAGUGAUGUUCGUUUUUCACAGGUAGGUCGCUGUAUAUUUA [JR_ExcArginiB_Sub009]
apparent KD of K4 kissing-loop reporter (input ligand: FMN 200 uM): 167 nM
apparent KD of K4 kissing-loop reporter (input ligand: arginine 13.2 mM): 214 nM
apparent KD of K4 kissing-loop reporter (input ligand: none): 194 nM
apparent KD of K4 kissing-loop reporter [1]: 192 nM
apparent KD of K4 kissing-loop reporter [2]: 152 nM

GUAGGAUGAGGAGGAGGAUGAAUUACUGAAGGAGCGCAAAGAAAUGCAGGUAGGUCGCGGUAAAGAAGUAUAGUGAUGUUAUAUC [#08 K4 Arginine A Same State]
apparent KD of K4 kissing-loop reporter (input ligand: FMN 200 uM): 588 nM
apparent KD of K4 kissing-loop reporter (input ligand: arginine 13.2 mM): 416 nM
apparent KD of K4 kissing-loop reporter (input ligand: none): 463 nM
apparent KD of K4 kissing-loop reporter [1]: 700 nM
apparent KD of K4 kissing-loop reporter [2]: 598 nM
